These results are taken from publication PMC5902653 (The Analyst, 2018).

Common to all, as to assay: cross-linking
Assay [1] has as its target heat shock protein 70 (Hsp70), labeled with AlexaFluor488 (UniProt P0DMV8).
Assay [2] addresses T1, KIX domain of mouse CREB-binding protein (mouse, UniProt P45481 586-665).
For assay [3], the target named is T1, KIX domain of mouse CREB-binding protein. The source holds these as a separate data set.

Usually Kd stands for a measure of binding affinity in units of concentration.

Like-named read-outs stand apart in the source and are kept apart here. *: point of attachment. FITC = O=C1OC2(c3ccc(O)cc3Oc3cc(O)ccc32)c2ccc(NC(=S)*)cc21; βAla = NCCC(=O)O

T1 sequence (P45481 586-665): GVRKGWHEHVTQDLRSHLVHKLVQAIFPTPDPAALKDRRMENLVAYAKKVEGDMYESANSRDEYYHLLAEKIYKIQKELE

For “bcl2 association athanogene 3 (Bag3) (from UniProt O95817 1-575) (natural protein)”, in assay [1], the Kd came out at 26 nM. Still for that read-out and setting: the same measure for “heat shock protein 70 (Hsp70), labeled with AlexaFluor488 (from UniProt P0DMV8 1-641) (natural protein)”: 1200 nM.

B1: E2A17 peptide, FITC labeled (peptide)
peptide: {FITC-βAla}-GTDKELSDLLDFSAMFS-NH2
SMILES: CSCC[C@H](NC(=O)[C@H](C)NC(=O)[C@H](CO)NC(=O)[C@H](Cc1ccccc1)NC(=O)[C@H](CC(=O)O)NC(=O)[C@H](CC(C)C)NC(=O)[C@H](CC(C)C)NC(=O)[C@H](CC(=O)O)NC(=O)[C@H](CO)NC(=O)[C@H](CC(C)C)NC(=O)[C@H](CCC(=O)O)NC(=O)[C@H](CCCCN)NC(=O)[C@H](CC(=O)O)NC(=O)[C@@H](NC(=O)CNC(=O)CCNC(=S)Nc1ccc2c(c1)C(=O)OC21c2ccc(O)cc2Oc2cc(O)ccc21)[C@@H](C)O)C(=O)N[C@@H](Cc1ccccc1)C(=O)N[C@@H](CO)C(N)=O
B1 gave a Kd in assay [2] of 1100 ± 200 nM.

B2: c-Myb peptide, FITC labeled (peptide)
peptide: {FITC-βAla}-KEKRIKELELLLMSTENELKGQQALW-NH2
SMILES: CC[C@H](C)[C@H](NC(=O)[C@H](CCCNC(=N)N)NC(=O)[C@H](CCCCN)NC(=O)[C@H](CCC(=O)O)NC(=O)[C@H](CCCCN)NC(=O)CCNC(=S)Nc1ccc2c(c1)C(=O)OC21c2ccc(O)cc2Oc2cc(O)ccc21)C(=O)N[C@@H](CCCCN)C(=O)N[C@@H](CCC(=O)O)C(=O)N[C@@H](CC(C)C)C(=O)N[C@@H](CCC(=O)O)C(=O)N[C@@H](CC(C)C)C(=O)N[C@@H](CC(C)C)C(=O)N[C@@H](CC(C)C)C(=O)N[C@@H](CCSC)C(=O)N[C@@H](CO)C(=O)N[C@H](C(=O)N[C@@H](CCC(=O)O)C(=O)N[C@@H](CC(N)=O)C(=O)N[C@@H](CCC(=O)O)C(=O)N[C@@H](CC(C)C)C(=O)N[C@@H](CCCCN)C(=O)NCC(=O)N[C@@H](CCC(N)=O)C(=O)N[C@@H](CCC(N)=O)C(=O)N[C@@H](C)C(=O)N[C@@H](CC(C)C)C(=O)N[C@@H](Cc1c[nH]c2ccccc12)C(N)=O)[C@@H](C)O
As to B2, in assay [3], binding was put at a Kd of 3100 ± 500 nM.
